Assay results: the nanobody polyreactivity screen of Harvey et al. (2022)

Assay: yeast display, Sf9 membrane polyspecificity reagent, FACS + sequencing; frameworks hold sequencing errors
Procedure, shortened: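 Nanobodies came from a synthetic yeast display library in Saccharomyces cerevisiae BJ5465, induced with galactose for 36–48 hours and stained for 1 hour at 4 °C with 10% biotinylated, detergent-solubilized Sf9 membrane reagent. Cells were enriched on streptavidin microbeads and then FACS-sorted, with low and high (top ~1%) gates set on anti-HA fluorescence for expression and streptavidin fluorescence for reagent binding. Each polyreactivity label reflects the gate a clone came from. Genes were amplified by colony PCR, sequenced by MiSeq 2 × 250 and filtered by CDR length.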

Row | Sequence | polyreactivity (PSR sort gate)
1 | QVQLVESGGGLVQAGGSLRLSCAASGRIFGTYAMGWYRQAPGKERELVAVITRGGGTKYADSVKGRFTISRDNAKNTVYLQMNSLKPEDTAVYYCAARGRYYGYNYWGQGTQVTVSS | high polyreactivity
2 | QVQLVESGGGLVQAGGSLRLSCAASGRIFYYYAMRWYRQAPGKERELVATISGIGGSTYYADSVKGRFTISRDNAKNTVYLHMNSLKPEDTAVYYCNADYPTSYPLLKSGFDYWGQGTQVTVSS | low polyreactivity
3 | QVQLVESVGGLVQAGGSLRLSCAASGSTFGHNAMGWYRQAPGKERELVAVITSGGSTYYADSVKGRFTISRDNAKNTVYLQMNSLKPEDTAVYYCAKRYWSRGSKSSPYAYDYWGQGTQVTVSS | high polyreactivity
4 | QVQLVESGGGLVQAGGSLRLSCAASGSIFRSYALGWYRQSPGKERELVASISRRGGSTYYADSVKGRFTISRDNAKNTVYLQMNSLKPEDTAVYYCAAVRYNSRVSTTPSEMYYWGQGTQVTVSS | low polyreactivity
5 | QVQLVESGGGLVQAGGSLRLTCAASGSTFYRNAMGWYRQAPVKERELVATISSSDGSTYYADSVKGRFTISRDNAKNTVYLQMNSLKPEDTAVYYCATEIYYTKTYDSWGQGTQVTVSS | low polyreactivity
6 | QVQLVESGGGLVQAGGSLRLSCAASGLTFTRYDMGWYRQAPGKERELVASISQSGTSTHYADSVKGRFTISRDNAKNTVYLQMNSLKPEDTAVYYCAADYVSRYYVKWYRGFDYWGQGTQVTVSS | low polyreactivity
7 | QVQLVESGGGLVQAGASLSLSSAASGYIFYRYAMGWYRQAPGKERELVAAISSNGVSTYYADSVKGRFTISRDNAKNTVYLQLISLKPEDTAVYYCARDVYASPRRYNSRYNYWGQGTQVTVSS | low polyreactivity
8 | QVQLVESGGGLVQAGGSLRLSCAASGRTFASYTMGWYRQPPGKESELVAAINARGGNTYYADSVKGRFTISRDNAKNTVYLQMNSLKPEDTAVYYCAARQKRFKVAAGYDYWGQGTQVTVSS | high polyreactivity
9 | QVQLVESGGGLVQAGGSLRLSCAASGFTFVINDMGWYRQAPGKERELVADITSGGDKYYADSVKGRFTISRDNAKNTVYLQMISLKPEDTAVYYCARDNERDYYTYPYDYWGQGTQVTVSS | low polyreactivity
10 | QVQLVESGGGLVQAGGSLRLSCAASGSTFRYYAMGWYRQAPGKERELVAVISTSGNTYYADSVKGRFSISRDNAKITVYVQMNSLQPEETAVYYCAARGVGGQISQEYDYWGQGTQVTVSS | low polyreactivity
11 | QVQLVESGGGLVQAGGSLRLSCAASGRTLSWYAMGWYRQAPGKERELVASISSGGGTYYADSVKGRFTISRDNAKNTVYLQMNSLKPEDTAVYYCAARYHYAKSPYRYYYWGQGTQVTVSS | high polyreactivity
12 | QVQLVESGGGLVQAGGSLRLSCAASGFTFYTNAMGWYRQAPGKEREFVAAISFSGGTYYADSVKGRFTISRDNAKNTVYLQMNSLKPEDTAVYYCNARYPRYYRGVIQYDYWGQGTQVTVSS | low polyreactivity
13 | QVQLVESGGGLVQAGGSLRLSCAASGRTVGVYAMGWYRQAPGKERELVATITSGASTNYADSVKARFTISRDNAKNTVYLQMTSLKPEDTAVYYCNARRVAYASYSHPRVLDDYWGQGTQVTVST | low polyreactivity
14 | QVQLVESGGCLVQAGGSLRLSCDASGIIFRGNAMGWYRHAPGTERELVAAISSAGSTNYSDSVKGRFTISRDNAKNTVYLQMNSLKPEDTAVYYCAKGSIKYHVTLRGRGYYWGQGTQVTVSS | low polyreactivity
15 | QVQLVESGGGLVQAGGSLRLSCAASGITFASNTMGCYIQAPGKERELVAAITRGDNTYYADSVKGRFTISRDNAKNTVYLQMNSLKAEDPAVYYCATEGYQIQYEHDYWGQGTQVTVSS | low polyreactivity
16 | QVQLVESGGGLVQAGGSLRLSCAASGRIFGWYAMGWYRQAPGKEWELVAAITSGSRTSYADSVKGRFTISRDNAKNTDYLQMNSLNPEDTAVYYCARRSYGIYYRSADDSWGQGTQVTGSS | high polyreactivity
17 | QVHLVESGGGLVQAGGSLRLSCAASGSTFRRNAMGWYRQAPGKERELVASITSGGSTYYADSVKGRFTITRDNAKNTVYLQMNSLKPEDTGVYYCAVVWRGGYRWPYEYWGQGTQVTVSS | low polyreactivity
18 | QVQLVESGGGLVQAGGSLRLSCAASGRTLVWYTMGWYRQAPGKEREFVAVITTGSGSTYYADSVKGRFTISRDNAKNTVYLQMNSLKPEDTAVYYCNAGYGGYSYHYPPYEYWGQGTQVTVSS | low polyreactivity
19 | QVQLVESGGGLVQAGGSLRLSCAASGFTFQYNAMGWYRQAPGKERELVAAITWTGTSTYAYSVKGRFTISRDNAKNTVYLQLNSVKPDDTGVYYCAARYYAPRWFRYDYWGQGTQVTVSS | low polyreactivity
20 | QVQLVESGGGLVQAGGSLRLSCAASGFIFKRYAMGWYRQAPGKERELVAAISTYSGGRTYYADSVKGRFTISRDNAKNSVYLQMNSLKPEDTAVYYCNARKYVGFWSRYDYWGQGTQVTVSS | high polyreactivity
21 | QVQLVESGGGLVQAGGSLRLSCAASGSTFYKYVMGWYRQAPGKERELVAAISWSGGSTYYADSVKGRFTISRDNAKNTVYLQMNSLKPEDPAVYYCAAETYAYLFHTYDYWGQGTQVTVSS | low polyreactivity
22 | QVQLVESGGGLVQAGGSLRLSCAASGSILGFNAMGWYRQPPGKERELVAAIRWSGDSTYADSVKGRFTISRDNAKNSVYLQMNSLKPEDTAVYYCNAVTTYGYWYKYDYWGQGTQVTVSS | low polyreactivity

Row | Sequence | polyreactivity (PSR sort gate)
23 | QVQLVESGGGLVQAGGSLRLSCAASGRILYYYAMGWYRQAPGKERELVAAINSSGGSTYYADSVKGRFTISRDNAKNTVYLQMNSLKPEDTAVYYCAAVRSKLYYYWGQGTQVTVSS | high polyreactivity
24 | QVQLVESAGGLVQAGGSLSLSCAASGSTFAGYVMGWYRQAPGKERELVAAISRSGGSTYYADSVKGRFTISRDNAKNTVYLQMNSLKPEDTAVYYCAARNSPGLPGDYWGQGTQVTVSS | high polyreactivity
25 | QVQLVDSGGGLVQAGGSLRLSCAASGRIFRGYAMGWYRQAPGKERELVAAINRGSSTYYADSVKGRFTISRDNAKNTVYLQMNSLKPEDTAVYYCAVKGYLPYTGIFDYWGQGTQVTVSS | high polyreactivity
26 | QVQLVESGGGLVQAGASLRLSCAASGRTFSNYEMGSYRQAPGKERELVAAISGTGGTTYYADSVKGRFTISRVNEKNTVYLQMNSLKPEDTAVYYCAARSHTGYFPPSYYSGQGTQVTVSS | high polyreactivity
27 | QVQLVESGGGLVQAGGSLRLSCAASGSIFVVYAMGWYRQAPGKARALVAAITSDDDTNYADSVKGRFTLSRDNAKNTVYLQMNSLKPEDTAVYYCAKEVWLAINTRTGYEVYYWGQGTQVTVTS | low polyreactivity
28 | QVQLVESGGGLVQAGGSLRLSCAASGRIFSSNAMGSYRQAPGKERELVAGISIRGGSTYYADSVKGRFTISRDNAKNTVYLQMNSLKPEDTAVYYCAKDGRRRRTFDYWGQGTQVTVSS | high polyreactivity
29 | QVQLVESGGGLVQAGGSLRLSCAASGIIFSSNAMGWYRQAPGKERELVAAISRRGGSTYYADSVKGRFTISRDNAKNTVYLQMNSLKPEDTAVYYCNALLYNGAGYDYWGQGTQVTVSS | high polyreactivity
30 | QFQLVESGGGLDQAGGSLRLSCAASGITVYYYALGCYRQAPGKERELVAAITSSGGSTYYADSVKGRFTISRDNAKNTVYLQMNSLKPEDTAVYYCAARSYRGSSTYQGHGYWGQGTQVTVSS | high polyreactivity
31 | QVQLVESGGGLVQAGGSLRLSCAASGRTFVGNAMGWYRQAPGKERELVADITWSGDITYYADSVKGRFTISRDNAKNTVYLQMHSLKPEDTAVYYCAADYHRRRTDYDYWGQGTQVTVSS | low polyreactivity
32 | QVQLVESGGGLVQAGGSLRLSCAASGFTFYHYAMGWYRQAPGKEREFVAAISASGGSTYYADSVKGRFTISRDNAKNTVYLQMNSLKPEDTAVYYCNARYYYFSVRYKYDFNYWGQVTQVTVSS | high polyreactivity
33 | QVQLVESGGGLVQAGGSLRLSCAPSGRTFYYYAMGWYRQAPGKERELVAAISRGSTYYADSVKGRFTISRDNAKNTVYLQMNSLKPEDTAVYYCAARYHNYWNRYIYDYWGQGTQVTVSS | high polyreactivity
34 | QVHLVESGAGLVQAGGSLRLSCAASGGIFWVYAMGWYRQAPGKERELGAAISNSDTSTSYADSVKGRFTISRDNAKNTVYLQMTSLKPEDTAVYYCNADSPSLSGDYWGQGTQVTVSS | low polyreactivity
35 | QVQLVESGGGLVQAGGSLRLICAASGTIFDIYAMGWYRQAPGKERELVAAISLSAGSTYYADSVKGRFTISRDNAKNTVYLQMNSLKPEDTAGYYFNADGWYGYWGQGTQVTVSS | low polyreactivity
36 | QVQLVESGGGLVQAGGSLRLSCAASGRIFSYNTMGWYRQAPGKERELVAAISCSGGSTSYADSVKGRFTISRDNAKNTVYLQMNSLKPEDTAVYYCATGSKRNPFYRGNYWGQGTQVTVSS | low polyreactivity
37 | QVQLVETGGGLVQAGGSLRLSCAASGSTFVSNAMGWYSQAPGKERELVAAISYIGGGTYYADSEKGRFTISRDNAKNTVYLQMNSLKPEDTAVYYCAAGTPYDLDDYCGQGTQVTVSS | low polyreactivity
38 | QVQLVESGGGLVQAGGSLRLSCAASGRIFAPYAMGWYRQAPGKERELVAAITSGGSTNYADSVKGRFTISRDNAKNTVYVQMNSLKPEDTAVYYCAAEASYNYGKYVVTYDYWGQGTQVTVSS | high polyreactivity
39 | QVQLVESGGGLVQAGGSLRLSCAASGGTFRANAMGWYRQAPGKERELVAAISFRGGTTYYADSVKGRFTISRDNAKNTVYLQMNSLKPEDTAVYYCAARFLYYFRGKGYDYWGQGTQVTVSS | high polyreactivity
40 | QVQIVESGGGLVQAGGSLRLSCAASGFTFRAYAMGWYRQAPGKERELDAAISKSGGRTYYADSVKGRFTISRDNAKNTVYLQMNSLKPEDTAVYYCAKAYRRAFINNPDVYYYPDDYWGQGTQVTVSS | high polyreactivity
41 | QDQLVESGGGIVQAGGSLRLSCAASGRTFGINAMGWSRQAPGKERELVAVISCGDGGTYYADSVKWRFTISRDNAKNTVYLQMKSLKPEDTAVYYCSSEYQSTSLWGGHFVINPYDYWGQATQVTVSS | low polyreactivity
42 | QVKLVESGGGLVQAGGSLRLSCAASGSIFNTYVMGWYRQAPGKERELVAAITSSGGRTYYADSVKGRFTISRDNAKNTVYLQMNSLKPEDTAVYYCNTAQRWVGRNDYWGQGTQVTVSS | high polyreactivity
43 | QVQLQESGGGLVQAGGSLRLSCAASGYISLAQTKGWYRQEPGKEREFVASIALGSSTYYTDSVKGSFTISRDNAKTTVYLQMNSVKPEDTAVYYCAARVGASYAHDFWGQGTQVTVSS | low polyreactivity
